In PMC11087509 (2024):
Where no end group is shown, it is not given here. [ ]: non-standard residue; d: D form. Gu = N-terminal tetramethylguanidine; Orn = NCCC[C@H](N)C(=O)O

How the values were obtained:
[1] = target: purified E. coli 30S ribosomal subunit (E. coli (endogenous in MRE600)); assay: FP
[2] = target: T1, purified E. coli 70S ribosome (E. coli (endogenous in BW25113), UniProt P60723 1-201; P61175 1-110; P0ADZ0 1-100; P0A7M6 1-63; P0A7J3 1-165); assay: FP; competition with cf-Api88
[3] = target: T1, purified E. coli 70S ribosome; assay: FP; competition with cf-Api88; remark: listed apart in the source
[4] = target: purified E. coli 50S ribosomal subunit (E. coli (endogenous in MRE600), UniProt P60723 1-201; P61175 1-110; P0ADZ0 1-100; P0A7M6 1-63; P0A7J3 1-165); assay: FP
[5] = target: T1, purified E. coli 70S ribosome; assay: FP

| Binder | Kd [1] [µM] | Ki [2] [µM] | IC50 [3] [µM] | Kd [4] [µM] | Kd [5] [µM] |
| --- | --- | --- | --- | --- | --- |
| Gu-[Orn](5(6)‑carboxyfluorescein)NNRPVYIPRPRPPHPRL-NH2 [cf-Api88 (5(6)-carboxyfluorescein-labeled Api88, Gu-ONNRPVYIPRPRPPHPRL-NH2)] | 14.3 |  |  |  |  |
| VDKPPYLPRPRPPR[dR]IYN[dR]-NH2 [Onc112 (VDKPPYLPRPRPPRrIYNr-NH2)] |  | 1.87 | 9.8 |  |  |
| Gu-[Orn]NNRPVYIPRPRPPHPRL-NH2 [Api88 (Gu-ONNRPVYIPRPRPPHPRL-NH2)] |  | 2.45 | 12.8 |  |  |
| {5(6)‑carboxyfluorescein}-VDKPPYLPRPRPPR[dR]IYN[dR]-NH2 [cf-Onc112 (5(6)-carboxyfluorescein-labeled Onc112, VDKPPYLPRPRPPRrIYNr-NH2)] | 1.14 |  |  | 0.05 | 0.06 |
| Gu-[Orn]NNRPVYIPRPRPPHPRL-OH [Api137 (Gu-ONNRPVYIPRPRPPHPRL-OH)] |  | 3.03 | 15.9 |  |  |
| Gu-[Orn](5(6)‑carboxyfluorescein)NNRPVYIPRPRPPHPRL-OH [cf-Api137 (5(6)-carboxyfluorescein-labeled Api137, Gu-ONNRPVYIPRPRPPHPRL-OH)] | 20.2 |  |  |  |  |
